The record followed here is paper PMC9242592, “Activation of the human chemokine receptor CX3CR1 regulated by cholesterol” (Science Advances, 2022).

The chains are these.
T1: Modified CX3CL1-CX3CR1 fusion followed by the Twin-Strep-Tag at the C terminus ( | human, UniProt P78423 25-100; P49238 1-315, G35C | I120^3.43L | L176^ECL2C | C221^ICL3S | M250^6.54V, pyroglutamate at residue 1 of CX3CL1 (pE1); disulfide between G35C of CX3CL1 and L176C of CX3CR1)
T1 construct: CX3CL1 chemokine domain, residues 1 to 76; numbers count on: the mature protein (pE1 is residue 1); 28-residue linker (14 × Gly-Ser); CX3CR1, human, residues 1 to 315, as in construct-1 with the additional L176C; A signal peptide before CX3CL1 is not described; also called construct-2; fused form of CX3CR1-CX3CL1 with a cross-linking disulfide bond; source: HighFive insect cells, coexpressed with …
T1 sequence: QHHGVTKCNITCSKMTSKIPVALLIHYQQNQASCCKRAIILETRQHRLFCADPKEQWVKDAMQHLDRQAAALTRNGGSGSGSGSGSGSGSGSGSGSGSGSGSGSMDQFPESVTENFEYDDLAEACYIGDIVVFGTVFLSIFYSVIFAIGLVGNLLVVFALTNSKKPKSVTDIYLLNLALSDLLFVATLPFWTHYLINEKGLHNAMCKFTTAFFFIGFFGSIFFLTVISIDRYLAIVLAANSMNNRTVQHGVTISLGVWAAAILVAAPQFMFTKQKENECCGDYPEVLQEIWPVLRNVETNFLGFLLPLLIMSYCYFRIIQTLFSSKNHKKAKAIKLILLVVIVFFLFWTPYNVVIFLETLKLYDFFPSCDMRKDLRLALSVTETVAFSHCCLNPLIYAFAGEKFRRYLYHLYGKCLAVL

T2: CX3CR1 (residues 1 to 315; I120L, L176C, C221S, M250V) as it stands in construct-2 (human, UniProt P49238 1-315, I120^3.43L | L176^ECL2C | C221^ICL3S | M250^6.54V)
T2 construct: CX3CR1, human, residues 1 to 315; Not a free protein: the receptor part of the fusion m2; Written alone for the pair CX3CL1 with CX3CR1; source: HighFive insect cells, part of the fusion construct-2, purified as complex (Strep-Tactin, SEC); not shown: Twin-Strep-tag, C-terminal, kept
T2 sequence (looked up): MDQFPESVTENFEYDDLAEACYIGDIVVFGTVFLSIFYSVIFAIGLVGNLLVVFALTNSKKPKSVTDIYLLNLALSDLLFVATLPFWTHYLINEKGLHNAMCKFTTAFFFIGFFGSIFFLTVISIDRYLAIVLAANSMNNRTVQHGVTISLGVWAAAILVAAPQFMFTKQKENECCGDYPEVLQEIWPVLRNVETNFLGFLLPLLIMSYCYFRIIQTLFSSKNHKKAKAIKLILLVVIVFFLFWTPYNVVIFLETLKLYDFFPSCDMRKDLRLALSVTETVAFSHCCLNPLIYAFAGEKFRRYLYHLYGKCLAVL

B1: human dominant negative Gαi1 (DNGαi1) with S47C, G202T, G203A, E245A and A326S (natural protein)
chain: MGCTLSAEDKAAVERSKMIDRNLREDGEKAAREVKLLLLGAGESGKCTIVKQMKIIHEAGYSEEECKQYKAVVYSNTIQSIIAIIRAMGRLKIDFGDSARADDARQLFVLAGAAEEGFMTAELAGVIKRLWKDSGVQACFNRSREYQLNDSAAYYLNDLDRIAQPNYIPTQQDVLRTRVKTTGIVETHFTFKDLHFKMFDVTAQRSERKKWIHCFEGVTAIIFCVALSDYDLVLAEDEEMNRMHASMKLFDSICNNKWFTDTSIILFLNKKDLFEEKIKKSPLTICYPEYAGSNTYEEAAAYIQCQFEDLNKRKDTKEIYTHFTCSTDTKNVQFVFDAVTDVIIKNNLKDCGLF
notes: source: HighFive insect cells, coexpressed with the receptor and Gβ1/Gγ2, purified as complex (Strep-Tactin, SEC)
B2: Modified human CX3CR1 (residues 1 to 315) with three mutations (I120L, C221S, M250V) and a C-terminal Twin-Strep-tag (receptor, UniProt P49238 1-315, looked up)
chain: T2 sequence (looked up) with C176L
notes: CX3CR1, human, residues 1 to 315 (40 residues C316 to L355 truncated from the C terminus); also called construct-1; engineered construct; source: HighFive insect cells, coexpressed with DNGαi1 and Gβ1/Gγ2, purified as complex (Strep-Tactin, SEC); not shown: Twin-Strep-tag, C-terminal, kept
B3: CX3CL1 (residues 1 to 76, G35C) as it stands in construct-2 (ligand, UniProt P78423 25-100, looked up)
chain: QHHGVTKCNITCSKMTSKIPVALLIHYQQNQASCCKRAIILETRQHRLFCADPKEQWVKDAMQHLDRQAAALTRNG
modifications: pyroglutamate at 1 (pE1)
notes: CX3CL1 chemokine domain, residues 1 to 76; numbers count on: the mature protein (pE1 is residue 1); Written alone for the pair CX3CL1 with CX3CR1; also called chemokine CX3CL1; source: HighFive insect cells, part of the fusion construct-2, purified as complex (Strep-Tactin, SEC)

Positions count from the first letter of the chain named. In names and notes the source's numbering stands.

What all share (settings): both partners purified
The target in assay [1] is T1, Modified CX3CL1-CX3CR1 fusion followed …. Description: cryo-EM structure; CX3CL1-bound CX3CR1-Gi1 complex; construct-2 (CX3CL1 fused to CX3CR1, disulfide G35C-L176C), DNGαi1 and Gβ1/Gγ2 coexpressed in HighFive cells and purified together (Strep-Tactin, SEC) in LMNG/CHS; 25 mM Hepes pH 7.5, 150 mM NaCl; apyrase treated.
Assay [2] has as its target B1. Description: cryo-EM structure; ligand-free CX3CR1-Gi1 complex; construct-1, DNGαi1 and Gβ1/Gγ2 coexpressed in HighFive cells and purified together (Strep-Tactin, SEC) in LMNG/GDN/CHS; 25 mM Hepes pH 7.5, 150 mM NaCl; apyrase treated.
The target of assay [3] is T2, CX3CR1 (residues 1 to 315; I120L, …). Description: cryo-EM structure; CX3CL1-bound CX3CR1-Gi1 complex; construct-2 (CX3CL1 fused to CX3CR1, disulfide G35C-L176C), DNGαi1 and Gβ1/Gγ2 coexpressed in HighFive cells and purified together (Strep-Tactin, SEC) in LMNG/CHS; 25 mM Hepes pH 7.5, 150 mM NaCl; apyrase treated.

With B1, the binding result in assay [1] was “binds”.

Consider B2, for which the binding result in assay [2] is “binds”.

Turning to B3, the binding result in assay [3] is “binds”.
